This is an account of results in US12383631.

In assay [1] the target is human PD-1 on Jurkat T effector cells (human) (UniProt Q15116).
The target of assay [2] is T1, IL-18 receptor (IL-18Rα/IL-18Rβ) on cells (HEK-Blue IL18R reporter cells, NK-92, KG-1) (human) (UniProt Q13478).
T1 sequence (looked up) 1: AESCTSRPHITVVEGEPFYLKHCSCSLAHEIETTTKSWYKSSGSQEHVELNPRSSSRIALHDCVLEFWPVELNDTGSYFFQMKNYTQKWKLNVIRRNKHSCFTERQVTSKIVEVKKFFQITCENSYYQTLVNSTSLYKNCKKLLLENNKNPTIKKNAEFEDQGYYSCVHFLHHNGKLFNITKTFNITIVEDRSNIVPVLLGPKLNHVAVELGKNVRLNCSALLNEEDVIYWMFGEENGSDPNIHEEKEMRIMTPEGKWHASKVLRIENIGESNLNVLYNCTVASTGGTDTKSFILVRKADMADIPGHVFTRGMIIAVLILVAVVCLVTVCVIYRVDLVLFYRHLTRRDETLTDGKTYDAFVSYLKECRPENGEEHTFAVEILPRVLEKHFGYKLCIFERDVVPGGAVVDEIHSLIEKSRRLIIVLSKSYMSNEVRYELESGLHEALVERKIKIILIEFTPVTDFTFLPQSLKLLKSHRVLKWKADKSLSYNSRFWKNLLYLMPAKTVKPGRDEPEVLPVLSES
T1 sequence (looked up) 2: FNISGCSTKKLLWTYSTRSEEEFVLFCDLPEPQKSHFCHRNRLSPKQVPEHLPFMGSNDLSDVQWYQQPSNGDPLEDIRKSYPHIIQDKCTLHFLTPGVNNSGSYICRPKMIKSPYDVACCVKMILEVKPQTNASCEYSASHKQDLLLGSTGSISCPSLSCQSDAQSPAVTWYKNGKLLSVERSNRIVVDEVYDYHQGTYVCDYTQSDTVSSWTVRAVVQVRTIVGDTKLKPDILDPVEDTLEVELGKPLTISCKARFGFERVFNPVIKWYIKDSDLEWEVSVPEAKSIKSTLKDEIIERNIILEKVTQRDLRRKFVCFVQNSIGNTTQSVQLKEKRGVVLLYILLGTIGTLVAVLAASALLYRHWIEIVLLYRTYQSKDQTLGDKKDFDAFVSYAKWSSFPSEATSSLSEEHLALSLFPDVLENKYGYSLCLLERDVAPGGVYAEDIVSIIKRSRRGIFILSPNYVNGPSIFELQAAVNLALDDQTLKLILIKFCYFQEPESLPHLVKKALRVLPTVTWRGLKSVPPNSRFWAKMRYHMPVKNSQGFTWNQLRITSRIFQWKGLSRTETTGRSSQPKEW
As to the kind of experiment: cell-based or functional assay.

Assay [3] deals with recombinant Human Fc gamma RI/CD64 Protein (R&D systems, 1257-FC-050) (human) (UniProt P12314). As to the kind of experiment: ELISA; immunocytokine coated, receptor titrated, anti-His-HRP. In general terms: An ELISA detects its analyte on a solid surface through an enzyme-linked reagent.
Assay [4] addresses recombinant Human Fc gamma RIIA/CD32a (H167) Protein (R&D systems, 9595-CD-050) (human) (UniProt P12318). The description is as above.
The target of assay [5] is recombinant Human Fc gamma RIIB/CD32b Avi-tag Protein (R&D systems, AVI1875-050) (human) (UniProt P31994). The description is as above.
For assay [6], the target named is recombinant Human Fc gamma RIIIA/CD16a Protein (R&D systems, 4325-FC-050) (human) (UniProt P08637). The assay is described as above.
Assay [7] has as its target recombinant Human Fc gamma RI/CD64 Protein (R&D systems, 1257-FC-050) (human) (UniProt P12314). As to the kind of experiment: ELISA: immunocytokine coated on the plate (2.5 ug/ml), His-tagged recombinant human Fc gamma RI/CD64 titrated in solution (x-axis), anti-His-HRP/TMB, 450 nm.
Assay [8] deals with human IL-18BP-His (human) (UniProt O95998). As to the kind of experiment: AlphaLISA of free IL-18BP after incubation with IL-18BP-His. A general note: In Alpha technology, singlet oxygen from a donor bead excites a nearby acceptor bead.
For assay [9] the target is unchanged. As to the kind of experiment: AlphaLISA of free (unbound) IL-18BP: immunocytokine titrated (x-axis) and pre-incubated with human IL-18BP-His; anti-IL-18BP acceptor beads, biotinylated anti-IL-18BP antibody, streptavidin donor beads; the signal falls as IL-18BP is bound.
In assay [10] the target is human PD-1 on Jurkat T effector cells (human) (UniProt Q15116). The source holds these as a separate data set.
Assay [11] deals with recombinant Human Fc gamma RI/CD64 Protein (R&D systems, 1257-FC-050) (human) (UniProt P12314). As to the kind of experiment: ELISA; antibody coated, receptor titrated, anti-His-HRP.
Assay [12] has as its target recombinant Human Fc gamma RIIA/CD32a (H167) Protein (R&D systems, 9595-CD-050) (human) (UniProt P12318). The description is as above.
Assay [13] addresses recombinant Human Fc gamma RIIB/CD32b Avi-tag Protein (R&D systems, AVI1875-050) (human) (UniProt P31994). Described as above.
Assay [14] has as its target recombinant Human Fc gamma RIIIA/CD16a Protein (R&D systems, 4325-FC-050) (human) (UniProt P08637). The description is as above.
Assay [15] has as its target recombinant biotinylated human FcRn (human) (UniProt P55899). As to the kind of experiment: AlphaLISA competition at pH 6; competitor: human IgG on acceptor beads.
The target in assay [16] is recombinant Human Fc gamma RI/CD64 Protein (R&D systems, 1257-FC-050) (human) (UniProt P12314). As to the kind of experiment: ELISA: antibody coated on the plate (2.5 ug/ml), His-tagged recombinant human Fc gamma RI/CD64 titrated in solution (x-axis), anti-His-HRP/TMB, 450 nm.
The target in assay [17] is recombinant biotinylated human FcRn (human) (UniProt P55899). As to the kind of experiment: FcRn competition AlphaLISA at pH 6: test antibody titrated (x-axis) against human IgG-coated acceptor beads (reference IgG) for biotinylated human FcRn on streptavidin donor beads; loss of signal.

One may read the Kd as the concentration at which binding is half-saturated. For orientation: EC50 (read off the curve) means the concentration needed to bring the measured effect to its halfway point.

Read-outs that look alike come from different tables or passages of the source.

recombinant Human Fc gamma RI/CD64 Protein (R&D systems, 1257-FC-050) (human), sequence (P12314 16-288 limits assumed): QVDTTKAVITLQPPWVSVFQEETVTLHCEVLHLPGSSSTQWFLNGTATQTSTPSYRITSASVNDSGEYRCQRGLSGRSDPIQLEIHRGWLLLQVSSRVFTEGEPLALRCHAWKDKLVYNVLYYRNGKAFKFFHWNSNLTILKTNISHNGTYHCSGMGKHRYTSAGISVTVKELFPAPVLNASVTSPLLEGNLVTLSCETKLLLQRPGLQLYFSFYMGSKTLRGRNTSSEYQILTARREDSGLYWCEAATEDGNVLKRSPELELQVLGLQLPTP
recombinant Human Fc gamma RIIIA/CD16a Protein (R&D systems, 4325-FC-050) (human), sequence (P08637 17-208 limits assumed): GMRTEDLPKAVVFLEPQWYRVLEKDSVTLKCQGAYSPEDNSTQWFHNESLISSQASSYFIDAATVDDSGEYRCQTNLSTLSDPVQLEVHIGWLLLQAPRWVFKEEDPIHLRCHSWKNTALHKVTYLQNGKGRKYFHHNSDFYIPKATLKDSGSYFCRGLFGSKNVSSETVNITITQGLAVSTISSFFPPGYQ
human IL-18BP-His (human), sequence (O95998 31-194 limits assumed): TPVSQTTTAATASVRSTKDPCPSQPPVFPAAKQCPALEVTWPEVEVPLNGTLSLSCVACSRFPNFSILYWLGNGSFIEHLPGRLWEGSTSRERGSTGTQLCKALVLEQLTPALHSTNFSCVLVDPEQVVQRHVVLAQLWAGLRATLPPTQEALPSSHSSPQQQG
recombinant Human Fc gamma RIIB/CD32b Avi-tag Protein (R&D systems, AVI1875-050) (human), sequence (P31994 46-217 limits assumed): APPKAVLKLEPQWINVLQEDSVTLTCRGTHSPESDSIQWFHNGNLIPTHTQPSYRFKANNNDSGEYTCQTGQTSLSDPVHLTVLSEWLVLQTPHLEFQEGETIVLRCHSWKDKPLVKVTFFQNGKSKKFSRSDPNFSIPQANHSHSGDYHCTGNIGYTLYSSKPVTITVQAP
recombinant Human Fc gamma RIIA/CD32a (H167) Protein (R&D systems, 9595-CD-050) (human), sequence (P12318 36-218 limits assumed): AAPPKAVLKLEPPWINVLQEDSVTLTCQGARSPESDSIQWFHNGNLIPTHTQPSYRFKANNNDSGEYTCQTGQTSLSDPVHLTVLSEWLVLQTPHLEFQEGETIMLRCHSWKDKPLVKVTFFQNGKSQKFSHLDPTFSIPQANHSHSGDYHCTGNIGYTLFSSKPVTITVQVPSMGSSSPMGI
human PD-1 on Jurkat T effector cells (human), sequence (Q15116 25-288 limits assumed): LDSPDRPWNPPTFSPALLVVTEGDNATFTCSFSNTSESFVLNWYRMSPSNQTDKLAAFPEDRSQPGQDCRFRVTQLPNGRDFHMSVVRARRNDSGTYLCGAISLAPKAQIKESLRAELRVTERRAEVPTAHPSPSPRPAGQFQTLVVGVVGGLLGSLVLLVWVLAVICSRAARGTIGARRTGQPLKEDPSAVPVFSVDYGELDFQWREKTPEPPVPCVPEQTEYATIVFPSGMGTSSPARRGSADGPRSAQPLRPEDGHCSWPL
recombinant biotinylated human FcRn (human), sequence (P55899 24-297 limits assumed, form in doubt, chain 1 of 2): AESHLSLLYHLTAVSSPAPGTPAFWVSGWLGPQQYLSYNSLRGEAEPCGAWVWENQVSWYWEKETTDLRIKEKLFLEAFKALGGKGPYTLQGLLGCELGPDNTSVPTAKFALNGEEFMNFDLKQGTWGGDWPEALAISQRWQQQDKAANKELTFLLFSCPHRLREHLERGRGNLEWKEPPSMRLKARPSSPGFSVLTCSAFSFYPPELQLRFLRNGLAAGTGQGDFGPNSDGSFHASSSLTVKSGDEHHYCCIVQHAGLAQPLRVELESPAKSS
recombinant biotinylated human FcRn (human), sequence (chain, as listed by the source limits assumed, form in doubt, chain 2 of 2): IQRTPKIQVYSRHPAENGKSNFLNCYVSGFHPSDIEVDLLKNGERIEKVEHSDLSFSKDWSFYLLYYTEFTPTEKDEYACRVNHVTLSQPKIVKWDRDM
LZM-009 (antibody), sequence (VH): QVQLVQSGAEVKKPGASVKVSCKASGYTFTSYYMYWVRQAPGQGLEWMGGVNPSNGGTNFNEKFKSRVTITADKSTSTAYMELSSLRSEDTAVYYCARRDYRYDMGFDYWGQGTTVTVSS
LZM-009 (antibody), sequence (VL): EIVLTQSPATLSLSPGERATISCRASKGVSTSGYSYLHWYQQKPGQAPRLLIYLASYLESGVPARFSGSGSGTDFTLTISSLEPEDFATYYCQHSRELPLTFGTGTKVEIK

On to “Composition A (LZM-009 conjugated to IL-18 polypeptide of SEQ ID NO: 30) (from UniProt Q14116 37-193)”, for which the EC50 (read off the curve), NFAT-RE luciferase signal (PD-1/PD-L1 Blockade Bioassay) in assay [1] was found to be 3 nM. In assay [2], the EC50, IFNγ secretion, NK92 cells amounted to 0.073 nM. The EC50, IFNγ secretion, PD-1 positive KG-1 cells in [2] came to 0.0012 nM. In addition, in assay [2], the EC50, IFNγ secretion, parental KG-1 cells came out at 0.011 nM. The Kd in [3] amounted to 0.25 nM; in [4] it was 1890 nM; in [5], 436 nM; in assay [6], 598 nM. Besides, the EC50 (read off the curve) in assay [7] was found to be 0.3 nM.
Consider “Composition C (Trastuzumab/Herceptin conjugated to IL-18 polypeptide of SEQ ID NO: 30)”, for which, in assay [2], the EC50, IFNγ secretion, NK92 cells was found to be 0.027 nM; the EC50, IFNγ secretion, PD-1 positive KG-1 cells came to 0.0096 nM; the EC50, IFNγ secretion, parental KG-1 cells was 0.0166 nM. The Kd in [8] stood at 10.5 nM. For the same substance, the Kd in assay [6] turned out to be 3300 nM. In assay [9], this substance registered an IC50 (read off the curve) of 10 nM.
As for LZM-009 (antibody), the EC50 (read off the curve), NFAT-RE luciferase signal (PD-1/PD-L1 Blockade Bioassay) in assay [10] came out at 2 nM. The Kd came to 0.315 nM in assay [11]; 1350 nM in assay [12]; 2630 nM in assay [13]; 1710 nM in [14]; 6 nM in [15]. For the same substance, the EC50 (read off the curve) in [16] is 0.2 nM. In assay [17], the IC50 (read off the curve) was 5 nM.
